Laboratory results as given in FireProtDB (doi:10.1074/jbc.272.30.18686).

B1: Ribonuclease HI, P0A7Y4 (parent)
chain: MLKQVEIFTDGSCLGNPGPGGYGAILRYRGREKTFSAGYTRTTNNRMELMAAIVALEALKEHCEVILSTDSQYVRQGITQWIHNWKKRGWKTADKKPVKNVDLWQRLDAALGQHQIKWEWVKGHAGHPENERCDELARAAAMNPTLEDTGYQVEV

Variants of: B1
Conditions: Escherichia coli (strain K12), pH 3.2, Thermal, CD, glycine-HCl 10 mM, reversible: yes, structure 2RN2, whole UniProt chain shown; for ddG of mutation (higher = less stable): 53 °C

Variant: A52F V74A
- Tm: 48.4 °C
- change of melting temperature, mutant - wild type (higher = more stable): -4.6 °C
- unfolding enthalpy (van 't Hoff): 359 kJ/mol

Variant: A52V V74L
- ddG of mutation (higher = less stable): -10.2 kJ/mol
- Tm: 61 °C
- change of melting temperature, mutant - wild type (higher = more stable): 8.07 °C
- unfolding enthalpy (van 't Hoff): 525 kJ/mol

Variant: A52H
- Tm: 41.2 °C
- change of melting temperature, mutant - wild type (higher = more stable): -11.8 °C
- unfolding enthalpy (van 't Hoff): 354 kJ/mol

Variant: A52G
- Tm: 44.1 °C
- change of melting temperature, mutant - wild type (higher = more stable): -8.9 °C
- unfolding enthalpy (van 't Hoff): 381 kJ/mol

Variant: A52Y
- ddG of mutation (higher = less stable): 9.62 kJ/mol
- Tm: 45.4 °C
- change of melting temperature, mutant - wild type (higher = more stable): -7.6 °C
- unfolding enthalpy (van 't Hoff): 296 kJ/mol

Variant: A52F
- Tm: 51.5 °C
- change of melting temperature, mutant - wild type (higher = more stable): -1.5 °C
- unfolding enthalpy (van 't Hoff): 372 kJ/mol
